± gives the uncertainty stated by the source.
B1: Friend leukemia integration 1 transcription factor, residues 116 to 197; numbered along this chain, Q01543 (parent)
chain: NMTTNERRVIVPADPTLWTQEHVRQWLEWAIKEYSLMEIDTSFFQNMDGKELCKMNKEDFLRATTLYNTEVLLSHLSYLRES

Variants of: B1
Experiment: abundance fitness (aPCA) (normalised: wild type 0, dead -1); higher = more abundant; growth selection in yeast, the domain comes from the species named
Details: Homo sapiens

| Variant | abundance fitness |
| --- | --- |
| NMTTNERRVIVPADPTLWTQEHVRQWLEWAIKEYSLMEIDTSFFQNMDGKELCKMQKEDFLRATTLYNTEVLLSHLSYLRES [N56Q] | -0.043 ± 0.076 |
| NMTTNERRVIVPADPTLWTQEHVRQWLEWAIKEYSLMEIDTSFFQNMDGKELCKMHKEDFLRATTLYNTEVLLSHLSYLRES [N56H] | 0.12 ± 0.11 |
| NMTTNERRVIVPADPTLWTQEHVRQWLEWAIKEYSLMEIDTSFFQNMDGKELCKMCKEDFLRATTLYNTEVLLSHLSYLRES [N56C] | -0.157 ± 0.17 |
| NMTTNERRVIVPADPTLWTQEHVRQWLEWAIKEYSLMEIDTSFFQNMDGKELCKMYKEDFLRATTLYNTEVLLSHLSYLRES [N56Y] | -0.54 ± 0.25 |
| NMTTNERRVIVPADPTLWTQEHVRQWLEWAIKEYSLMEIDTSFFQNMDGKELCKMKKEDFLRATTLYNTEVLLSHLSYLRES [N56K] | 0.125 ± 0.14 |
| NMTTNERRVIVPADPTLWTQEHVRQWLEWAIKEYSLMEIDTSFFQNMDGKELCKMSKEDFLRATTLYNTEVLLSHLSYLRES [N56S] | -0.043 ± 0.059 |
| NMTTNERRVIVPADPTLWTQEHVRQWLEWAIKEYSLMEIDTSFFQNMDGKELCKMMKEDFLRATTLYNTEVLLSHLSYLRES [N56M] | -0.002 ± 0.099 |
| NMTTNERRVIVPADPTLWTQEHVRQWLEWAIKEYSLMEIDTSFFQNMDGKELCKMFKEDFLRATTLYNTEVLLSHLSYLRES [N56F] | -0.515 ± 0.21 |
| NMTTNERRVIVPADPTLWTQEHVRQWLEWAIKEYSLMEIDTSFFQNMDGKELCKMDKEDFLRATTLYNTEVLLSHLSYLRES [N56D] | -0.033 ± 0.13 |
| NMTTNERRVIVPADPTLWTQEHVRQWLEWAIKEYSLMEIDTSFFQNMDGKELCKMVKEDFLRATTLYNTEVLLSHLSYLRES [N56V] | -0.054 ± 0.072 |
| NMTTNERRVIVPADPTLWTQEHVRQWLEWAIKEYSLMEIDTSFFQNMDGKELCKMAKEDFLRATTLYNTEVLLSHLSYLRES [N56A] | -0.091 ± 0.088 |
| NMTTNERRVIVPADPTLWTQEHVRQWLEWAIKEYSLMEIDTSFFQNMDGKELCKMWKEDFLRATTLYNTEVLLSHLSYLRES [N56W] | -0.221 ± 0.087 |
| NMTTNERRVIVPADPTLWTQEHVRQWLEWAIKEYSLMEIDTSFFQNMDGKELCKMRKEDFLRATTLYNTEVLLSHLSYLRES [N56R] | -0.226 ± 0.071 |
| NMTTNERRVIVPADPTLWTQEHVRQWLEWAIKEYSLMEIDTSFFQNMDGKELCKMPKEDFLRATTLYNTEVLLSHLSYLRES [N56P] | -0.155 ± 0.071 |
| NMTTNERRVIVPADPTLWTQEHVRQWLEWAIKEYSLMEIDTSFFQNMDGKELCKMGKEDFLRATTLYNTEVLLSHLSYLRES [N56G] | 0.049 ± 0.074 |
| NMTTNERRVIVPADPTLWTQEHVRQWLEWAIKEYSLMEIDTSFFQNMDGKELCKMLKEDFLRATTLYNTEVLLSHLSYLRES [N56L] | -0.129 ± 0.052 |
| NMTTNERRVIVPADPTLWTQEHVRQWLEWAIKEYSLMEIDTSFFQNMDGKELCKMIKEDFLRATTLYNTEVLLSHLSYLRES [N56I] | -0.247 ± 0.11 |

| Variant | abundance fitness |
| --- | --- |
| NMTTNERRVIVPADPTLWTQEHVRQWLEWAIKEYSLMEIDTSFFQNMDGKELCKMEKEDFLRATTLYNTEVLLSHLSYLRES [N56E] | 0.178 ± 0.1 |
| NMTTNERRVIVPADPTLWTQEHVRQWLEWAIKEYSLMEIDTSFFQNMDGKELCKMNFEDFLRATTLYNTEVLLSHLSYLRES [K57F] | -0.451 ± 0.21 |
| NMTTNERRVIVPADPTLWTQEHVRQWLEWAIKEYSLMEIDTSFFQNMDGKELCKMNEEDFLRATTLYNTEVLLSHLSYLRES [K57E] | -0.135 ± 0.077 |
| NMTTNERRVIVPADPTLWTQEHVRQWLEWAIKEYSLMEIDTSFFQNMDGKELCKMNHEDFLRATTLYNTEVLLSHLSYLRES [K57H] | -0.52 ± 0.24 |
| NMTTNERRVIVPADPTLWTQEHVRQWLEWAIKEYSLMEIDTSFFQNMDGKELCKMNLEDFLRATTLYNTEVLLSHLSYLRES [K57L] | -0.213 ± 0.079 |
| NMTTNERRVIVPADPTLWTQEHVRQWLEWAIKEYSLMEIDTSFFQNMDGKELCKMNDEDFLRATTLYNTEVLLSHLSYLRES [K57D] | -0.312 ± 0.16 |
| NMTTNERRVIVPADPTLWTQEHVRQWLEWAIKEYSLMEIDTSFFQNMDGKELCKMNGEDFLRATTLYNTEVLLSHLSYLRES [K57G] | -0.433 ± 0.088 |
| NMTTNERRVIVPADPTLWTQEHVRQWLEWAIKEYSLMEIDTSFFQNMDGKELCKMNCEDFLRATTLYNTEVLLSHLSYLRES [K57C] | -0.212 ± 0.31 |
| NMTTNERRVIVPADPTLWTQEHVRQWLEWAIKEYSLMEIDTSFFQNMDGKELCKMNAEDFLRATTLYNTEVLLSHLSYLRES [K57A] | -0.268 ± 0.11 |
| NMTTNERRVIVPADPTLWTQEHVRQWLEWAIKEYSLMEIDTSFFQNMDGKELCKYNKEDFLRATTLYNTEVLLSHLSYLRES [M55Y] | -0.273 ± 0.21 |
| NMTTNERRVIVPADPTLWTQEHVRQWLEWAIKEYSLMEIDTSFFQNMDGKELCKSNKEDFLRATTLYNTEVLLSHLSYLRES [M55S] | -0.424 ± 0.082 |
| NMTTNERRVIVPADPTLWTQEHVRQWLEWAIKEYSLMEIDTSFFQNMDGKELCKQNKEDFLRATTLYNTEVLLSHLSYLRES [M55Q] | -0.158 ± 0.099 |
| NMTTNERRVIVPADPTLWTQEHVRQWLEWAIKEYSLMEIDTSFFQNMDGKELCKTNKEDFLRATTLYNTEVLLSHLSYLRES [M55T] | -0.204 ± 0.11 |
| NMTTNERRVIVPADPTLWTQEHVRQWLEWAIKEYSLMEIDTSFFQNMDGKELCKWNKEDFLRATTLYNTEVLLSHLSYLRES [M55W] | -0.04 ± 0.082 |
| NMTTNERRVIVPADPTLWTQEHVRQWLEWAIKEYSLMEIDTSFFQNMDGKELCKVNKEDFLRATTLYNTEVLLSHLSYLRES [M55V] | -0.331 ± 0.072 |
| NMTTNERRVIVPADPTLWTQEHVRQWLEWAIKEYSLMEIDTSFFQNMDGKELCKRNKEDFLRATTLYNTEVLLSHLSYLRES [M55R] | -0.444 ± 0.067 |
| NMTTNERRVIVPADPTLWTQEHVRQWLEWAIKEYSLMEIDTSFFQNMDGKELCKPNKEDFLRATTLYNTEVLLSHLSYLRES [M55P] | -0.784 ± 0.14 |
